Laboratory results published in US6258932, “Peptides that block viral infectivity and methods of use thereof” (Tripep AB, dated 2001).
Ends that are not written are not given here.

Experiments:
[1] = molecular target: capsid protein of HIV-2 (HIV-2)
[2] = molecular target: capsid protein of SIV (SIV)
[3] = molecular target: HIV-1 major capsid protein (p24) (HIV-1) (UniProt P04591)
[4] = molecular target: HIV-1 major capsid protein (p24) (HIV-1) (UniProt P04591); remark: listed apart in the source
[5] = molecular target: HIV-1 major capsid protein (p24) (HIV-1) (UniProt P04591); remark: listed apart in the source
[6] = molecular target: HIV-1 major capsid protein (p24) (HIV-1) (UniProt P04591); remark: listed apart in the source
[7] = molecular target: HIV-1 major capsid protein (p24) (HIV-1) (UniProt P04591); remark: listed apart in the source
[8] = molecular target: HIV-1 major capsid protein (p24) (HIV-1) (UniProt P04591); experiment: equilibrium dialysis of 10 µM recombinant protein against 27.5 µM 14C-GPG-NH2, scintillation counting; ratio to the dialysis buffer
[9] = molecular target: T1, HIV-1 major capsid protein (p24) (HIV-1, UniProt P04591); experiment: cell-based or functional assay
[10] = molecular target: T1, HIV-1 major capsid protein (p24); experiment: cell-based or functional assay; remark: listed apart in the source

Cys-Gln-Gly-NH2 (peptide)
Day 10 RT, HIV-2 (OD of reverse transcriptase activity in the supernatant of infected H9 cells) [1]: 0.296 OD | Day 10 RT, SIV (OD of reverse transcriptase activity in the supernatant of infected H9 cells) [2]: 0.11 OD

Gly-Pro-Gly-NH2 (peptide)
Day 10 RT, HIV-1 (OD of reverse transcriptase activity in the supernatant of infected H9 cells); HIV-1 syncytia [3]: 0.074 OD | Day 10 RT, HIV-2 (OD of reverse transcriptase activity in the supernatant of infected H9 cells) [1]: 0.145 OD | Day 10 RT, SIV (OD of reverse transcriptase activity in the supernatant of infected H9 cells) [2]: 0.103 OD | p24 antigen in the supernatant of HIV-1 infected H9 cells, day 7, reduction (%) [4]: 100% | p24 (pg/ml) in the supernatant of HIV-1 infected HUT78 cells, day 7, reduction (%) [5]: 97% | HIV-1 p24 (pg/ml) in the supernatant of PBMC infected with AZT- or Ritonavir-resistant HIV-1 isolates, 14 days post infection, 100 µM peptide [6]: < 500 pg/mL | p24 pg/ml in the supernatant of MT-2 cells infected with HIV-1 Bru wild type or the V3 loop GPG-deleted mutants mp8 and mp10, reduction % [7]: 93% | times buffer [8]: 7.55 times buffer

Gly-Lys-Gly-NH2 (peptide)
Day 10 RT, HIV-2 (OD of reverse transcriptase activity in the supernatant of infected H9 cells) [1]: 0.147 OD | Day 10 RT, SIV (OD of reverse transcriptase activity in the supernatant of infected H9 cells) [2]: 0.099 OD

B1: GHK-NH2 (peptide)
peptide: Gly-His-Lys-NH2
Day 10 RT, HIV-1 (OD of reverse transcriptase activity in the supernatant of infected H9 cells); HIV-1 syncytia [9]: 3.01 OD

B2: HKA-NH2 (peptide)
peptide: His-Lys-Ala-NH2
Day 10 RT, HIV-1 (OD of reverse transcriptase activity in the supernatant of infected H9 cells); HIV-1 syncytia [9]: 2.79 OD

B3: KAR-NH2 (peptide)
peptide: Lys-Ala-Arg-NH2
Day 10 RT, HIV-1 (OD of reverse transcriptase activity in the supernatant of infected H9 cells); HIV-1 syncytia [9]: 2.93 OD

B4: ILK-NH2 (peptide)
peptide: Ile-Leu-Lys-NH2
Day 10 RT, HIV-1 (OD of reverse transcriptase activity in the supernatant of infected H9 cells); HIV-1 syncytia [9]: 2.95 OD

B5: KAL-NH2 (peptide)
peptide: Lys-Ala-Leu-NH2
Day 10 RT, HIV-1 (OD of reverse transcriptase activity in the supernatant of infected H9 cells); HIV-1 syncytia [9]: 2.79 OD

B6: LKA-NH2 (peptide)
peptide: Leu-Lys-Ala-NH2
Day 10 RT, HIV-1 (OD of reverse transcriptase activity in the supernatant of infected H9 cells); HIV-1 syncytia [9]: 2.99 OD

B7: Ser-Pro-Thr-NH2 (peptide)
peptide: Ser-Pro-Thr-NH2
p24 (pg/ml) in the supernatant of HIV-1 infected HUT78 cells, day 7, 100 µM peptide, reduction (%) [10]: 25%

B8: ACQ-NH2 (peptide)
peptide: Ala-Cys-Gln-NH2
Day 10 RT, HIV-1 (OD of reverse transcriptase activity in the supernatant of infected H9 cells); HIV-1 syncytia [9]: 2.83 OD

B9: Lys-Gln-Gly-NH2 (peptide)
peptide: Lys-Gln-Gly-NH2
p24 (pg/ml) in the supernatant of HIV-1 infected HUT78 cells, day 7, 100 µM peptide, reduction (%) [10]: 99%

B10: Val-Gly-Gly-NH2 (peptide)
peptide: Val-Gly-Gly-NH2
p24 (pg/ml) in the supernatant of HIV-1 infected HUT78 cells, day 7, 100 µM peptide, reduction (%) [10]: 50%

B11: Ala-Leu-Gly-NH2 (peptide)
peptide: Ala-Leu-Gly-NH2
p24 (pg/ml) in the supernatant of HIV-1 infected HUT78 cells, day 7, 100 µM peptide, reduction (%) [10]: 100%

B12: ARV-NH2 (peptide)
peptide: Ala-Arg-Val-NH2
Day 10 RT, HIV-1 (OD of reverse transcriptase activity in the supernatant of infected H9 cells); HIV-1 syncytia [9]: 2.83 OD

B13: GPQ-NH2 (peptide)
peptide: Gly-Pro-Gln-NH2
Day 10 RT, HIV-1 (OD of reverse transcriptase activity in the supernatant of infected H9 cells); HIV-1 syncytia [9]: 2.85 OD

B14: Ser-Leu-Gly-NH2 (peptide)
peptide: Ser-Leu-Gly-NH2
p24 (pg/ml) in the supernatant of HIV-1 infected HUT78 cells, day 7, 100 µM peptide, reduction (%) [10]: 99%

B15: Ala-Ser-Gly-NH2 (peptide)
peptide: Ala-Ser-Gly-NH2
p24 (pg/ml) in the supernatant of HIV-1 infected HUT78 cells, day 7, 100 µM peptide, reduction (%) [10]: 25%

B16: Gly-Val-Gly-NH2 (peptide)
peptide: Gly-Val-Gly-NH2
p24 (pg/ml) in the supernatant of HIV-1 infected HUT78 cells, day 7, 100 µM peptide, reduction (%) [10]: 25%

B17: Arg-Gln-Gly-NH2 (peptide)
peptide: Arg-Gln-Gly-NH2
p24 (pg/ml) in the supernatant of HIV-1 infected HUT78 cells, day 7, 100 µM peptide, reduction (%) [10]: 99%

B18: GAT-NH2 (peptide)
peptide: Gly-Ala-Thr-NH2
Day 10 RT, HIV-1 (OD of reverse transcriptase activity in the supernatant of infected H9 cells); HIV-1 syncytia [9]: 2.8 OD
